Measured values from patent US20200055959A1 (UCB, published 2020).

What was measured:
[1] = molecular target: T1, human serum albumin (human, UniProt P02768 25-609); assay: SPR, BIAcore T100; construct captured; HSA 50-6.25 nM as analyte; 1:1 model; repeat at end of run
T1 construct: Analyte in SPR, titrated 50-6.25 nM; also called HSA
Protocol: (§1) Single linker Fab-dsFv samples were captured to the sensor chip surface using either a human F(ab′)₂-specific goat Fab (Jackson ImmunoResearch, 109-006-097) or an in-house generated anti human CH1 monoclonal antibody. Covalent immobilisation of the capture antibody was achieved by standard amine coupling chemistry.
(§2) For kinetic assays, either a titration of human serum albumin 50-6.25 nM, or a single concentration of OX40 of 25 nM was performed. A blank flow-cell was used for reference subtraction and buffer-blank injections were included to subtract instrument noise and drift.
(§3) Kinetic parameters were determined by simultaneous global-fitting of the resulting sensorgrams to a standard 1:1 binding model using BIAcore T100 Evaluation software.

[2] = molecular target: T1, human serum albumin; assay: SPR, BIAcore T100; construct captured by anti-human F(ab')2 Fab or anti-CH1 mAb; HSA 50-6.25 nM as analyte; 1:1 model
Protocol: as §1, §2, §3

[3] = molecular target: T1, human serum albumin; assay: SPR, BIAcore T100; construct captured; HSA 50-6.25 nM as analyte; 1:1 model
Protocol: as §1, §2, §3

[4] = molecular target: T1, human serum albumin; assay: SPR, BIAcore T100; construct captured; HSA 50-6.25 nM as analyte; 1:1 model; plasmid ratio 1:1:1
Protocol: as §1, §2, §3

[5] = molecular target: T1, human serum albumin; assay: SPR, BIAcore T100; construct captured; HSA 50-6.25 nM as analyte; 1:1 model; plasmid ratio 1:1:2
Protocol: as §1, §2, §3

[6] = molecular target: T1, human serum albumin; assay: SPR, BIAcore T100; construct captured; HSA 50-6.25 nM as analyte; 1:1 model; plasmid ratio 2:1:2
Protocol: as §1, §2, §3

[7] = molecular target: T1, human serum albumin; assay: SPR, BIAcore T100; construct captured; HSA 50-6.25 nM as analyte; 1:1 model; plasmid ratio printed 1:1:1 (second such row)
Protocol: as §1, §2, §3

Row | Binder | Kd [3] [nM] | koff [3] [s⁻¹] | kon [3] [M⁻¹ s⁻¹] | Kd [4] [nM] | koff [4] [s⁻¹] | kon [4] [M⁻¹ s⁻¹] | Kd [5] [nM] | koff [5] [s⁻¹] | kon [5] [M⁻¹ s⁻¹] | Kd [6] [nM] | koff [6] [s⁻¹] | kon [6] [M⁻¹ s⁻¹] | also measured
1 | A26Fab-645dsFv (bispecific antibody, Expressed in HEK293; tested as supernatant; also called Fab-dsFv; A26Fab-645dsFv (start)) heavy: EVQLVESGGGLVQPGGSLRLSCAASGFTFTNYGIHWIRQAPGKGLEWVASISPSGGLTYYRDSVKGRFTISRDDAKNSPYLQMNSLRAEDTAVYYCATGGEGIFDYWGQGTLVTVSSASTKGPSVFPLAPSSKSTSGGTAALGCLVKDYFPEPVTVSWNSGALTSGVHTFPAVLQSSGLYSLSSVVTVPSSSLGTQTYICNVNHKPSNTKVDKKVEPKSCSGGGGSGGGGTGGGGSEVQLLESGGGLVQPGGSLRLSCAVSGIDLSNYAINWVRQAPGKCLEWIGIIWASGTTFYATWAKGRFTISRDNSKNTVYLQMNSLRAEDTAVYYCARTVPGYSTAPYFDLWGQGTLVTVSS light: DIQMTQSPSSLSASVGDRVTITCRATQSIYNALAWYQQKPGKAPKLLIYNANTLHTGVPSRFSASGSGTDSTLTISSLQPEDFATYYCQQYYDYPLTFGGGTKVEIKRTVAAPSVFIFPPSDEQLKSGTASVVCLLNNFYPREAKVQWKVDNALQSGNSQESVTEQDSKDSTYSLSSTLTLSKADYEKHKVYACEVTHQGLSSPVTKSFNRGECSGGGGSGGGGSGGGGSDIQMTQSPSSVSASVGDRVTITCQSSPSVWSNFLSWYQQKPGKAPKLLIYEASKLTSGVPSRFSGSGSGTDFTLTISSLQPEDFATYYCGGGYSSISDTTFGCGTKVEIKRT | – | – | – | – | – | – | – | – | – | – | – | – | Kd [1]: 3.11 nM; koff [1]: 0.000212 s⁻¹; kon [1]: 68200 M⁻¹ s⁻¹; Kd [2]: 2.01 nM; koff [2]: 0.000151 s⁻¹; kon [2]: 75100 M⁻¹ s⁻¹
2 | A26Fab-645dsscFv (LC-scFv) (bispecific antibody, To be checked by chain lengths; also called Fab-dsscFv (LC-scFv)) heavy: EVQLVESGGGLVQPGGSLRLSCAASGFTFTNYGIHWIRQAPGKGLEWVASISPSGGLTYYRDSVKGRFTISRDDAKNSPYLQMNSLRAEDTAVYYCATGGEGIFDYWGQGTLVTVSSASTKGPSVFPLAPSSKSTSGGTAALGCLVKDYFPEPVTVSWNSGALTSGVHTFPAVLQSSGLYSLSSVVTVPSSSLGTQTYICNVNHKPSNTKVDKKVEPKSC light: DIQMTQSPSSLSASVGDRVTITCRATQSIYNALAWYQQKPGKAPKLLIYNANTLHTGVPSRFSASGSGTDSTLTISSLQPEDFATYYCQQYYDYPLTFGGGTKVEIKRTVAAPSVFIFPPSDEQLKSGTASVVCLLNNFYPREAKVQWKVDNALQSGNSQESVTEQDSKDSTYSLSSTLTLSKADYEKHKVYACEVTHQGLSSPVTKSFNRGECSGGGGSGGGGSEVQLLESGGGLVQPGGSLRLSCAVSGIDLSNYAINWVRQAPGKCLEWIGIIWASGTTFYATWAKGRFTISRDNSKNTVYLQMNSLRAEDTAVYYCARTVPGYSTAPYFDLWGQGTLVTVSSGGGGSGGGGSGGGGSGGGGSDIQMTQSPSSVSASVGDRVTITCQSSPSVWSNFLSWYQQKPGKAPKLLIYEASKLTSGVPSRFSGSGSGTDFTLTISSLQPEDFATYYCGGGYSSISDTTFGCGTKVEIKRT | 1.29 | 0.000222 | 172000 | – | – | – | – | – | – | – | – | – | –
3 | Single linker A26Fab-645dsFv (LC-vL linked) (bispecific antibody, Three polypeptides; the free 645dsvH is held to the linked 645dsvL by the disulphide G44C (vH) / G100C (vL); all are the same molecule; also called single linker Fab-dsFv (LC-vL)) heavy: EVQLVESGGGLVQPGGSLRLSCAASGFTFTNYGIHWIRQAPGKGLEWVASISPSGGLTYYRDSVKGRFTISRDDAKNSPYLQMNSLRAEDTAVYYCATGGEGIFDYWGQGTLVTVSSASTKGPSVFPLAPSSKSTSGGTAALGCLVKDYFPEPVTVSWNSGALTSGVHTFPAVLQSSGLYSLSSVVTVPSSSLGTQTYICNVNHKPSNTKVDKKVEPKSC light: DIQMTQSPSSLSASVGDRVTITCRATQSIYNALAWYQQKPGKAPKLLIYNANTLHTGVPSRFSASGSGTDSTLTISSLQPEDFATYYCQQYYDYPLTFGGGTKVEIKRTVAAPSVFIFPPSDEQLKSGTASVVCLLNNFYPREAKVQWKVDNALQSGNSQESVTEQDSKDSTYSLSSTLTLSKADYEKHKVYACEVTHQGLSSPVTKSFNRGECSGGGGSGGGGSGGGGSDIQMTQSPSSVSASVGDRVTITCQSSPSVWSNFLSWYQQKPGKAPKLLIYEASKLTSGVPSRFSGSGSGTDFTLTISSLQPEDFATYYCGGGYSSISDTTFGCGTKVEIKRT VH: EVQLLESGGGLVQPGGSLRLSCAVSGIDLSNYAINWVRQAPGKCLEWIGIIWASGTTFYATWAKGRFTISRDNSKNTVYLQMNSLRAEDTAVYYCARTVPGYSTAPYFDLWGQGTLVTVSS | – | – | – | 3.17 | 0.000235 | 74000 | 2.31 | 0.000262 | 113000 | 1.49 | 0.000188 | 126000 | Kd [7]: 2.46 nM; koff [7]: 0.000223 s⁻¹; kon [7]: 91000 M⁻¹ s⁻¹
4 | Single linker A26Fab-645dsFv (HC-vH linked) (bispecific antibody, Three polypeptides; the free 645dsvL is held to the linked 645dsvH by the disulphide G44C (vH) / G100C (vL); all are the same molecule; also called single linker Fab-dsFv (HC-vH)) heavy: EVQLVESGGGLVQPGGSLRLSCAASGFTFTNYGIHWIRQAPGKGLEWVASISPSGGLTYYRDSVKGRFTISRDDAKNSPYLQMNSLRAEDTAVYYCATGGEGIFDYWGQGTLVTVSSASTKGPSVFPLAPSSKSTSGGTAALGCLVKDYFPEPVTVSWNSGALTSGVHTFPAVLQSSGLYSLSSVVTVPSSSLGTQTYICNVNHKPSNTKVDKKVEPKSCSGGGGSGGGGTGGGGSEVQLLESGGGLVQPGGSLRLSCAVSGIDLSNYAINWVRQAPGKCLEWIGIIWASGTTFYATWAKGRFTISRDNSKNTVYLQMNSLRAEDTAVYYCARTVPGYSTAPYFDLWGQGTLVTVSS light: DIQMTQSPSSLSASVGDRVTITCRATQSIYNALAWYQQKPGKAPKLLIYNANTLHTGVPSRFSASGSGTDSTLTISSLQPEDFATYYCQQYYDYPLTFGGGTKVEIKRTVAAPSVFIFPPSDEQLKSGTASVVCLLNNFYPREAKVQWKVDNALQSGNSQESVTEQDSKDSTYSLSSTLTLSKADYEKHKVYACEVTHQGLSSPVTKSFNRGEC VL: DIQMTQSPSSVSASVGDRVTITCQSSPSVWSNFLSWYQQKPGKAPKLLIYEASKLTSGVPSRFSGSGSGTDFTLTISSLQPEDFATYYCGGGYSSISDTTFGCGTKVEIKRT | – | – | – | 1 | 0.000209 | 209000 | 1.11 | 0.000234 | 211000 | 1.05 | 0.000207 | 197000 | –
5 | A26Fab-645dsscFv (HC-scFv) (bispecific antibody, To be checked by chain lengths; also called Fab-dsscFv (HC-scFv)) heavy: EVQLVESGGGLVQPGGSLRLSCAASGFTFTNYGIHWIRQAPGKGLEWVASISPSGGLTYYRDSVKGRFTISRDDAKNSPYLQMNSLRAEDTAVYYCATGGEGIFDYWGQGTLVTVSSASTKGPSVFPLAPSSKSTSGGTAALGCLVKDYFPEPVTVSWNSGALTSGVHTFPAVLQSSGLYSLSSVVTVPSSSLGTQTYICNVNHKPSNTKVDKKVEPKSCSGGGGTGGGGSEVQLLESGGGLVQPGGSLRLSCAVSGIDLSNYAINWVRQAPGKCLEWIGIIWASGTTFYATWAKGRFTISRDNSKNTVYLQMNSLRAEDTAVYYCARTVPGYSTAPYFDLWGQGTLVTVSSGGGGSGGGGSGGGGSGGGGSDIQMTQSPSSVSASVGDRVTITCQSSPSVWSNFLSWYQQKPGKAPKLLIYEASKLTSGVPSRFSGSGSGTDFTLTISSLQPEDFATYYCGGGYSSISDTTFGCGTKVEIKRT light: DIQMTQSPSSLSASVGDRVTITCRATQSIYNALAWYQQKPGKAPKLLIYNANTLHTGVPSRFSASGSGTDSTLTISSLQPEDFATYYCQQYYDYPLTFGGGTKVEIKRTVAAPSVFIFPPSDEQLKSGTASVVCLLNNFYPREAKVQWKVDNALQSGNSQESVTEQDSKDSTYSLSSTLTLSKADYEKHKVYACEVTHQGLSSPVTKSFNRGEC | 1.31 | 0.00024 | 183000 | – | – | – | – | – | – | – | – | – | –
